Data reported in the nanobody polyreactivity screen of Harvey et al. (2022).

Assay: yeast display, Sf9 membrane polyspecificity reagent, FACS + sequencing; frameworks hold sequencing errors
Procedure, shortened: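 A synthetic nanobody library was expressed on Saccharomyces cerevisiae BJ5465 by galactose induction for 36–48 hours. The library was stained for 1 hour at 4 °C with 10% biotinylated, detergent-solubilized Sf9 membrane reagent and enriched with streptavidin microbeads before FACS. Low and high (top ~1%) gates were set on anti-HA fluorescence for expression and streptavidin fluorescence for reagent binding, and each polyreactivity label reflects the gate of origin.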

| Sequence | polyreactivity (PSR sort gate) |
| --- | --- |
| QVQLVESGGGIVQAGGSLRLSCAASGRSFGIYAMGWYRQAPGKERELVAGITRGDRTFAYSVKGRFTISRDNAKNTVYLQMNSLKPEDTAVYYCNADVYPYKLALPAGMGYWGQGTQVTVSS | high polyreactivity |
| QVQLVESGGGIVQAGGSLRLSCAASGRTFAYYAMGWYRQAPGKERELVAAIDSSGGSTYYADSVKGRFTISRDNAKNTVYLQMYSLKPEDTAVYYCAASYPYDRYDQGGYGYWGQGTQVTVSS | low polyreactivity |
| QVQLVESGGGIVQAGGSLRLSCAASGRTFNFYAMGWYRQAPGKERELVAAIRKSGASTYYADSVKGRFTISRDNAKNTVYLQMNSLKPEDTAVYYCAADGQVSYALGFDYWGQGTQVTVSS | high polyreactivity |
| QVQLVESGGGIVQAGGSLRLSCAASGRTFQLYAMGWYRQAPGKERELVAAITRGGSTKYADSVKGRFTISRDNAKNTVYLQMNSLKPEDTAVDYCAAKFSSYWSRFGYWGQGTQVTVSS | high polyreactivity |
| QVQLVESGGGIVQAGGSLRLSCAASGRTFQPYAMGWYRQAPGKERELVAAITSIGGSTFYADSVKGRFTISRDNAKNTVYLQMNSLKPEDTAVYYCARRGYYRSKWERDYWGQGTQVTVSS | low polyreactivity |
| QVQLVESGGGIVQAGGSLRLSCAASGRTFSTYAMGWYRQAPGKESELVARITSSGGSTYYADSVKGRFTISRDNAKNTVYFQMNSLKPEDTAVYYCAARPLVRYRMQWTGGYYYWGQGTQVTVSS | high polyreactivity |
| QVQLVESGGGIVQAGGSLRLSCAASGRTFYDYAMGWYRPAPGKERELVAAISRRAGSTYYADSVKGRFTISRDISKNSVYLQMISLNPEDTAVYFCAAAYSRRWWRGHHYAFDYWGQGTQVTVSS | high polyreactivity |
| QVQLVESGGGIVQAGGSLRLSCAASGRTLQIYAMGRYRQAPGKERELVAAISSSGGSTYYADSVKGRFTISRDNEKNTVYLQMNSLKPEDTAVYYCAVDGYGYKDDYWGQGTQVTVSS | high polyreactivity |
| QVQLVESGGGIVQAGGSLRLSCAASGRTLSKNAMGWYRQAPGKERELVATISSVGRTNYADSVKGRFTISRDNAKNTVYLQMNSLKPEDTAVYNCAARRFRGSYYWGQGTQVTVSS | high polyreactivity |
| QVQLVESGGGIVQAGGSLRLSCAASGSIFDKNAMGWYRQAPGKERELVAAIDSGDTYYADSVKGRFTISRDNAKNTVYLQMNSLKPEDTAVYYCAADDVQYEYDYWGQGPQVTVSS | low polyreactivity |
| QVQLVESGGGIVQAGGSLRLSCAASGSIFGGNALGWDRQAPGKERELVAAITWSGTSTYYADSVKGRFTISRDNAKNTVYLQMNSLKPEDTAVYYCNADYKSTDFRYSGSRNYWGQGTQVTVSS | low polyreactivity |
| QVQLVESGGGIVQAGGSLRLSCAASGSIFIDYAMGWYRQAPGKERELVAAISWRGGSTYYADSVKGRFTISRDNAKNTVFLQMIRLKPEDTAVYYCAGARRSKRHEYYLGQGTQVTVSS | high polyreactivity |
| QVQLVESGGGIVQAGGSLRLSCAASGSIFKRYAMGWYRQAPGKERELVAAISWSGGNTYYADSVKGRFTISRDNAKYTVYLQMNILKPEDTAVYYCNAGYSYFGPGRGRFRYYYWGQGTQVTVSS | high polyreactivity |
| QVQLVESGGGIVQAGGSLRLSCAASGSIFRRNAMGWYRQSPGKEMEMVASISRGGSTYYADSVKGRFTISRDNAKNTVYLQMNSLKPEDTSVYYCNVVPRWLSWVPTTRRIGDDDYWGQGTQVTVSS | high polyreactivity |
| QVQLVESGGGIVQAGGSLRLSCAASGSILGYYVMGWYRQAPGIESELVAAISWSSGSTYYADSVKGRFTISRDNAKNTVYLQMNSLIPEDTAVYFCAAPIGDVYVGKGYDSWGQGTQVTVSS | low polyreactivity |
| QVQLVESGGGIVQAGGSLRLSCAASGSILSTYAMGWYRQAPGKERELVDSISSNAGSTYYSDSVKGRFTISRDNAKNTVYLQMNSLKPEDSAVYYCNKVYGGGTYDYWGQGTQVTVSS | low polyreactivity |
| QVQLVESGGGIVQAGGSLRLSCAASGSIVGQYAMGWYRQPPGKERELVAAITSGGRTNYADSVTGRFTISRDNAKNTVYVQMNRLKPEDTAVYYCAARGWVWYYWGQGTQVTVSS | high polyreactivity |
| QVQLVESGGGIVQAGGSLRLSCAASGSTFGSYAMGWYRQAPGKVRELVAAIYRAGSTYADSVKGRFTISRDNAKYTVYFQMNSLKPEDTAVYYCAKRDNALYYGYDYWRQGTQVTVSS | low polyreactivity |
| QVQLVESGGGIVQAGGSLRLSCAASGSTFILNAMGWYRQAPGKERALVATISSSDTSTYYADSVKGRFTISRDNAKNTVYLQMNSLKPEDTAVYYCNADDYTTSYLQRVYHYGVEYYYWGQGTQVTVSS | low polyreactivity |
| QVQLVESGGGIVQAGGSLRLSCAASGSTFRAYVMGWSRPAPGKERELVAAITYRGTSTYYADSVKGRFTISRDNAKYTVYLQMNSLKPEDTAVYYCAARRLYTRGTYDYWGLGTQVTVSS | high polyreactivity |
| QVQLVESGGGIVQAGGSLRLSCAASGSTFVDNAMGWYRQAPGKERELVAAITTSVGSTYYADSVKGRFTISRDNAKNTVYLQMNSLKPEDTAVYYCAATVFSTYPYGYGSTFVRDDYWGQGTQVTVSS | low polyreactivity |
| QVQLVESGGGIVQAGGSLRLSCAASGSTFVTNVMGWYRQAPGKERELVAAISYSGGNTYYEDSVKGRFTISRDNANNTVYLHMNSLKPEDTAVYYCNAYRVVHPCEYDYWGQGTQVTVSS | high polyreactivity |

| Sequence | polyreactivity (PSR sort gate) |
| --- | --- |
| QVQLVESGGGIVQAGGSLRLSCAASGSTFWIYAMGWYRQAPGKERELVAAISWRGGRTYYADSVKGRFTISRDNAKNTVYLQMNSLKPQDTAVYYCNAQKRDGSMGYWGQGTQVTVSS | high polyreactivity |
| QVQLVESGGGIVQAGGSLRLSCAASGSTIDKNAMGWYRQAPGKERELVAAINNGGGTTYYADSVKGRFTISRDNAKNTVFLQMNSLKPEDTAVYYCAAVGKAYWSDYQYRYYYWGQGTQVTVSS | low polyreactivity |
| QVQLVESGGGIVQAGGSLRLSCAASGSTLEPNAMGWYRQAPGKERELVAAITIGGSTYYADSVKGRFTISRDNAKYTVYLQMNSLKPEDTAVYYCAAKSTVQRRRHTNYDYWGQGTQVTVSS | high polyreactivity |
| QVQLVESGGGIVQAGGSLRLSCAASGSTLHSYALGWYRQAPGKERELVAAISFRGGSTYADSVKGRFTISRDNAKNTVYVQMNSLKPEDTAVYYCATRRTRADWYIVGYDYWGQGTQVTVSS | low polyreactivity |
| QVQLVESGGGIVQAGGSLRLSCAASGSTLTIYAMGWYRQAPGKERELVAAISRSGGRTYYADSVKGRFTISRDNAKNTVYLQMNSLKPEDTAVYYCATQPVRDRPGGSRKKYYYWGLGTQVTVSS | high polyreactivity |
| QVQLVESGGGIVQAGGSLRLSCAASGYTFAKYAMGWYRQEPGKERELVAAISSSGGRTYYADSVKGRFTISRDIAKNTVYLQMNSLKPEDTAVYYCNAYGQRDYWGQGSQVTVSS | high polyreactivity |
| QVQLVESGGGIVQAGGSLRLSCAPSGFIFRVYTMGWYRQAPGKERELVAAISYRGGRTYYADSVKGRFTISRDNAKNSVYLQMNILKPEDTAVYYCAAERVNREFDYWGQGTLVTVSS | high polyreactivity |
| QVQLVESGGGIVQAGGSLRLSCDASGRIFTGNVMGWYRQAPGKERELVAAISRRGGGTYYADSVKGRFTISRDNAKNTVYLQMNSLIPEDTALYYCDAQYRSQGQPKGCVLYYYWVQGTQVTVSS | high polyreactivity |
| QVQLVESGGGIVQAGGSLRLSFAASGSIFEGNALGWYRQEPGKEMEFVAAITKRGGSTYYADSVKGRFTISRDNAKNTVYLQMIWLKPEDTAGYYCAADRSYPRAGRYNYWGQGTQVTVSS | low polyreactivity |
| QVQLVESGGGIVQAGGSLRLSSAASGITFGANAMGWYRQAPGKERELVADITWSGGDTYYADSVKGRFTSSRDNAKNSVYLQMNSLKPEDTAVYYCNALQPGLGSPLGEYDYWGQGTQVTVSS | low polyreactivity |
| QVQLVESGGGIVQAGGSLRLSSAASGSTFYAYTMGWYRQAPGKERELVAAISSGGGTYYADSVKGRFTISRDNAKNTVYLQMNSLKPEDTAVYYCNADWRVGRQLSKAKIPYDYWGQGTQVTVSS | low polyreactivity |
| QVQLVESGGGIVQAGGSLRLSWAASGRIFYAYAMRWSRQAPGKERELVASLSGGGSTDYADSVKGRFTISRDNAKNTVVLQMNSLKPEDTAVYYCAAQYYLYRSRFDYWGQGTLVTVSS | high polyreactivity |
| QVQLVESGGGIVQAGGSLRVSCAASGRIFRRHNMGWYRQAPGKERELVAAITSSGGSTYADSVKGRFTISRDNAQNTVYLQMNSLKPEDTAVYYCATYVAYHRGYRTYDHWGQGTQVTVSS | low polyreactivity |
| QVQLVESGGGIVQAGGSLRVSFAASGLIFYRYAMGWYRQAPGKERELVAAISSAGSTYYADSVKGRFPISRDNAKNTVYLQMNSLKPEDTAVYYCAKKKLLSVPPRGYVYVYYWGQGTQVTVSS | high polyreactivity |
| QVQLVESGGGIVQAGRSLRLRCAASGFIFRYYTMGWYRQAPGKEREFVAAITSRGGSTYYSDSVKGRFTISRDNAKNTVYLQMNSLKPEDTAVYDCATTRWGYEYWGQGSQVTVSS | high polyreactivity |
| QVQLVESGGGIVQAGRSLRLSCAASGSIFDFNAMGWYRQAPGKERELVAAITWGGGSTYYAYSVKGRFTNSRDNEKNTVYLQIKSLKPEDTAVYYCNAAYGRYRYDYWGQGTQVTVSS | low polyreactivity |
| QVQLVESGGGIVQAGVSLRLSCAASGRTFWTNAMGWYRQAPGKERELVAVISTTTGNTYYADSVKGRFTISRDNAKNTVYLQMNSLKPEDTAVYYCNTRTGAFFLSKPYYYWGQGTQVTVSS | low polyreactivity |
| QVQLVESGGGIVQAGVSLRLSCAASGSTFESNAMGWYRQAPGKECELVASISGSGGSTFYADSVKGRFTISRDNAKNTVYLHMNSLKPEDTARYYCAAYKEPYYEESGYWGQVTQVTVSS | low polyreactivity |
| QVQLVESGGGIVQAGVSLRLSCAASGSTFVRYAMGWYRPAPGKERELVAAISGGGSTSYADSVKGRFTISRDNAKNTVYLQMNSLKPEDTAVYYCAAEKYRWENDAYQYYTFDYWGQGTQVTVSS | low polyreactivity |
| QVQLVESGGGKVQAGGSLRLSCAATGRNFGVYDMGSYRHSPGKERELVAAITARGGSTYYADSVKGRFTISRDNAKNTVYLQMNSLKPEDTAVYYCAASAGSAGHSGGYWGQGTQVTVSS | high polyreactivity |
| QVQLVESGGGLDQAGASLRLSCPASGRTFNANVMGWYRQAPGKERELVAAISTGGSTNYADSVKGRFTISRDNAKNTVYLQMNSLKPEDTAVYYCAAAIRVPQGGYYYWGQGTQVTVSS | low polyreactivity |
